Source: patent US20090264352A1 (published 2009)

Target: T1, GLP-1 receptor (RINm5F cell membranes) (UniProt P32301 22-463, limits assumed)
T1 construct: whole, on cells; The receptor source is homogenized cell membranes, not intact cells
T1 sequence (looked up): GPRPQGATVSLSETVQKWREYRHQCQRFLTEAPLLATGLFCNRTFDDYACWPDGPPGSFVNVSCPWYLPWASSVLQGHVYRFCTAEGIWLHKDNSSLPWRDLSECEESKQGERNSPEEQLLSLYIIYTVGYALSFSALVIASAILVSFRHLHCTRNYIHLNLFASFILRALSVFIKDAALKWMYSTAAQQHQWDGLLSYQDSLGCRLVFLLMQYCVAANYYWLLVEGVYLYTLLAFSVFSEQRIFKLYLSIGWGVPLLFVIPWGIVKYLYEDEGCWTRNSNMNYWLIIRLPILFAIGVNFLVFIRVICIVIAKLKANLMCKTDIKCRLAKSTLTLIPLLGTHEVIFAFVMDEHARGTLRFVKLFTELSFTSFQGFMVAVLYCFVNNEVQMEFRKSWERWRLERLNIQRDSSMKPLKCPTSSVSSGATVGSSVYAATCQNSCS
Experiment: displacement of [125I]GLP-1 from RINm5F cell membranes, filtration and scintillation counting
Procedure: Reaction mixtures are filtered through glass filter pads presoaked with 0.3% PEI solution and rinsed with ice-cold phosphate buffered saline. Bound counts are determined using a scintillation counter. Binding affinities are calculated using GraphPad Prism [sequence] PRISM® software (GraphPad Software, Inc., San Diego, Calif.).

IC50: 65 nM
B1: GLP-1 (9-36) (peptide, UniProt P01275 100-127, looked up)
peptide: EGTFTSDVSSYLEGQAAKEFIAWLVKGR
notes: range 100-127; Test compound in the displacement assay
